Experimental data published in PMC9894557, “The opportunistic pathogen Pseudomonas aeruginosa exploits bacterial biotin synthesis pathway to benefit its infectivity” (PLOS Pathogens, 2023).

B1: Pseudomonas aeruginosa BioH (PA0502) S66A (enzyme)
chain: MRDHLILLPGWGLGSAPLEPLRDALHEREPHLNVLIEPLPSLDDAADWLDELDDNLPRDSWLAGWALGGMLAGELAARRGDDCRGLLTLASNPCFRVREDWPNAMPAETFEDFFEAFLLEPHLTRKRFTLLVSQGARDPRTLARQLQVALPQLEREALVAGLQLLGQLDTRAALENFRGPQLHLFAEADALVPLAAAEALLEWLPDVEVSTLAASHGLPLECPDEVAGAILRFLREGDDA
notes: BioH (PA0502), Pseudomonas aeruginosa PAO1, catalytic triad mutant; Purification is described only for the wild type; also called BioH(S66A); source: E. coli, from pET28a::bioH(S66A), purified
B2: Pseudomonas aeruginosa BioH (PA0502) D189A (enzyme)
chain: MRDHLILLPGWGLGSAPLEPLRDALHEREPHLNVLIEPLPSLDDAADWLDELDDNLPRDSWLAGWSLGGMLAGELAARRGDDCRGLLTLASNPCFRVREDWPNAMPAETFEDFFEAFLLEPHLTRKRFTLLVSQGARDPRTLARQLQVALPQLEREALVAGLQLLGQLDTRAALENFRGPQLHLFAEAAALVPLAAAEALLEWLPDVEVSTLAASHGLPLECPDEVAGAILRFLREGDDA
notes: BioH (PA0502), Pseudomonas aeruginosa PAO1, catalytic triad mutant; Purification is described only for the wild type; also called BioH(D189A); source: E. coli, from pET28a::bioH(D189A), purified

Target: the molecule itself
Test: SEC; gel filtration on a Superdex 75 column; Streptococcus suis FakB2 (~33 kDa, known monomer) as size control

Row | Protein | binding result
1 | B1 | binds
2 | B2 | binds
